Measurements reported in publication PMC2626280.
Read-outs that look alike come from different tables or passages of the source. Each block holds one substance with its values, some of them ahead of it.

Experiments:
[1] = target: purified skeletal muscle actin (rabbit) (UniProt P68135); experiment: inhibition of actin polymerization (ultracentrifugation assay); apparent; skeletal muscle actin (18 µM) with increasing GST-RPEL (350–422 aa); 100 mM KCl, 2 mM MgCl2, 10 mM Tris-HCl pH 7.8, 20°C 60 min (legend: room temperature 30 minutes); 130,000 g 15 min; fraction of depolymerized actin by densitometry, nonlinear regression
[2] = target: actin (Oryctolagus cuniculus) (UniProt P68135); details: cited from earlier work
[3] = target: actin (Oryctolagus cuniculus) (UniProt P68135); details: cited from earlier work; remark: listed apart in the source
[4] = target: actin (Oryctolagus cuniculus) (UniProt P68135); details: cited from earlier work; remark: listed apart in the source

- Kd [1]: 0.018 µM
- stoichiometry N [1]: 1.21
Substance: GST-RPEL construct of scapinin, 350–422 aa (domain or fragment)

Substance: MAL RPEL3 (from UniProt Q8K4J6)
- Kd [2]: 18.8 µM

Substance: MAL RPEL2 (from UniProt Q8K4J6)
- Kd [3]: 2.3 µM

Substance: MAL RPEL1 (from UniProt Q8K4J6)
- Kd [4]: 5.4 µM
